Source: article PMC8654288, “Structural basis of DegP protease temperature-dependent activation” (Science Advances, 2021)
Positions count from the first letter of the chain named. Names may count otherwise. “And” between values parts separate entries of the source, which are not always exact repeats. Equal entries are not always repeated. No end group written: not given here. NO3 = not defined here

T1: DegP PDZ1 domain (DegP^261-354) (E. coli K12, UniProt P0C0V0 287-380)
T1 construct: DegP protease, E. coli K12, PDZ1 domain, residues 261-354; numbers count on: the mature protein; [U-15N]-labelled when observed in NMR titrations; also called pDS10; source: E. coli BL21 Star (λ DE3), purified (Ni2+ Sepharose, SENP1 cleavage, Superdex 75 Increase SEC); not shown: His6-SUMO, N-terminal, cleaved
T1 sequence (looked up): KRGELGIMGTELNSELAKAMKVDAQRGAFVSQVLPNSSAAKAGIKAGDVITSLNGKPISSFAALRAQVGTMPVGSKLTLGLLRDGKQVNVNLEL

T2: biotinylated PDZ1 domain (E. coli K12, UniProt P0C0V0 287-380, biotin (EZ-Link NHS-PEG4-Biotin, molar ratio 1:1 at pH 6.0 to ensure preferential labeling of the N-terminal α-amino group))
T2 construct: DegP protease, E. coli K12, PDZ1 domain, residues 261-354; numbers count on: the mature protein; m5 after biotinylation; immobilised on streptavidin biosensors; source: E. coli BL21 Star (λ DE3), purified, then biotinylated (EZ-Link NHS-PEG4-Biotin); not shown: His6-SUMO, N-terminal, cleaved
T2 sequence (looked up): T1 sequence (looked up)

T3: DegP^S210A,Y444A (E. coli K12), P0C0V0
T3 chain: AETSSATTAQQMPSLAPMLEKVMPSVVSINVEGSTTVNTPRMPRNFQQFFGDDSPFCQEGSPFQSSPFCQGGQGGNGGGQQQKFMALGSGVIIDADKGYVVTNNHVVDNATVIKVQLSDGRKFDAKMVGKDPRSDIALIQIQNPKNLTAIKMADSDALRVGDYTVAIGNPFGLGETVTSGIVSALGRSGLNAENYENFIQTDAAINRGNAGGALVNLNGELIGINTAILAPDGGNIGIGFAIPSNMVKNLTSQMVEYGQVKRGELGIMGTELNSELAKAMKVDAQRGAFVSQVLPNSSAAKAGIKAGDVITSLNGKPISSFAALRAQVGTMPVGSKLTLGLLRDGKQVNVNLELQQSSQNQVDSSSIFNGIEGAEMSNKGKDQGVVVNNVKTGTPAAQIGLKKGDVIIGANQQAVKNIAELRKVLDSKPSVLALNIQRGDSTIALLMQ

B1: p23 peptide (Abz-GNWVSAAKFETYR^NO3SKNTQDYGILQI) (peptide)
peptide: Abz-GNWVSAAKFETYR(NO3)SKNTQDYGILQI
modifications: reading uncertain; also: printed as Abz-GNWVSAAKFETYR^NO3^SKNTQDYGILQI
notes: The superscript probably marks a nitrotyrosine quencher at Y12; also called fluorescent p23 peptide; source: synthetic peptide, bought: GenScript
B2: DegP PDZ1-PDZ2 domain construct (DegP^261-448) (domain or fragment, E. coli K12, UniProt P0C0V0 287-474, looked up)
chain: KRGELGIMGTELNSELAKAMKVDAQRGAFVSQVLPNSSAAKAGIKAGDVITSLNGKPISSFAALRAQVGTMPVGSKLTLGLLRDGKQVNVNLELQQSSQNQVDSSSIFNGIEGAEMSNKGKDQGVVVNNVKTGTPAAQIGLKKGDVIIGANQQAVKNIAELRKVLDSKPSVLALNIQRGDSTIYLLMQ
notes: DegP protease, E. coli K12, PDZ1-PDZ2 domains, residues 261-448; numbers count on: the mature protein; Isotope-labelled for NMR; also called PDZ1-PDZ2 bidomain; pDS12; source: E. coli BL21 Star (λ DE3), purified (Ni2+ Sepharose, SENP1 cleavage, Superdex 75 Increase SEC); not shown: His6-SUMO, N-terminal, cleaved
B3: biotinylated PDZ2 domain (domain or fragment, E. coli K12, UniProt P0C0V0 385-474, looked up)
chain: QNQVDSSSIFNGIEGAEMSNKGKDQGVVVNNVKTGTPAAQIGLKKGDVIIGANQQAVKNIAELRKVLDSKPSVLALNIQRGDSTIYLLMQ
modifications: biotin (EZ-Link NHS-PEG4-Biotin, molar ratio 1:1 at pH 6.0 to ensure preferential labeling of the N-terminal α-amino group)
notes: DegP protease, E. coli K12, PDZ2 domain, residues 359-448; numbers count on: the mature protein; m6 after biotinylation; immobilised on streptavidin biosensors; source: E. coli BL21 Star (λ DE3), purified, then biotinylated (EZ-Link NHS-PEG4-Biotin); not shown: His6-SUMO, N-terminal, cleaved
B4: DegP PDZ2 domain (DegP^359-448) (domain or fragment, E. coli K12, UniProt P0C0V0 385-474, looked up)
chain: B3 chain
notes: DegP protease, E. coli K12, PDZ2 domain, residues 359-448; numbers count on: the mature protein; [U-15N]-labelled when observed in NMR titrations; also called pDS11; source: E. coli BL21 Star (λ DE3), purified (Ni2+ Sepharose, SENP1 cleavage, Superdex 75 Increase SEC); not shown: His6-SUMO, N-terminal, cleaved
B5: DegP^S210A,Y444A, P0C0V0 27-474 (enzyme)
chain: T3 chain
B6: DegP^S210A,M280A (enzyme, E. coli K12, UniProt P0C0V0 27-474, looked up)
chain: T3 chain with M280A, A444Y
notes: numbers count on: the mature protein
B7: DegP^S210A (full-length DegP, active site serine mutated) (enzyme, E. coli K12, UniProt P0C0V0 27-474, looked up)
chain: T3 chain with A444Y
notes: numbers count on: the mature protein; Isotope-labelled for NMR ([U-2H,15N] or [U-2H, Ile-d1-13CH3]); also called full-length DegP^S210A
B8: DegP^S210A,M280I (enzyme, E. coli K12, UniProt P0C0V0 27-474, looked up)
chain: T3 chain with M280I, A444Y
notes: as for B6

Assays:
[1] = target: B2; assay: NMR titration; substrates (p23, β-casein, nonactivating reporter peptide) added to the DegP PDZ domains (fig. S12); β-casein up to half equimolar ratio; details: both partners purified
[2] = target: the molecule itself; assay: NMR line broadening and peak intensities ([13C,1H] spectra of side chains); [U-13C,15N]-PDZ1-PDZ2 alone at 25° to 50°C; Y444 Cα and ring resonances, M280 ε-methyl open and locked states
[3] = target: T1, DegP PDZ1 domain (DegP^261-354); assay: BLI; Octet RED96, 25°C; biotinylated PDZ2 on streptavidin biosensors, PDZ1 as analyte; steady-state analysis; 0.1% BSA, 0.05% Tween 20; association 30 s, dissociation 40 s; details: both partners purified
biotinylated PDZ1 domain = target: T2, biotinylated PDZ1 domain; assay: BLI; Octet RED96, 25°C; biotinylated PDZ1 on streptavidin biosensors, PDZ2 as analyte; initial tests; details: both partners purified
[4] = target: T3, DegP^S210A,Y444A (E. coli K12), P0C0V0; assay: SEC; full-length DegP^S210A variants alone; 8°C stated for DegP^S210A,Y444A; trimer and hexamer species; details: remark: other sources report otherwise
[5] = target: T3, DegP^S210A,Y444A (E. coli K12), P0C0V0; assay: NMR pulsed field gradient diffusion (13C-methyl-filtered); [U-2H, Ile-δ1-13CH3]-DegP samples at 25°C; NMR buffer 25 mM potassium phosphate, 1 mM EDTA, 1 mM TCEP pH 7.0; oligomeric state from viscosity- and temperature-corrected translational diffusion coefficient against a calibration curve; hexamer to trimers; details: remark: other sources report otherwise
[6] = target: the molecule itself; assay: SEC; full-length DegP^S210A variants alone; 8°C stated for DegP^S210A,Y444A; trimer and hexamer species
[7] = target: the molecule itself; assay: NMR pulsed field gradient diffusion (13C-methyl-filtered); [U-2H, Ile-δ1-13CH3]-DegP samples at 43° and 50°C; NMR buffer pH 7.0; hexamer to trimers
[8] = target: the molecule itself; assay: NMR pulsed field gradient diffusion (13C-methyl-filtered); [U-2H, Ile-δ1-13CH3]-DegP samples at 25°C; NMR buffer 25 mM potassium phosphate, 1 mM EDTA, 1 mM TCEP pH 7.0; oligomeric state from viscosity- and temperature-corrected translational diffusion coefficient against a calibration curve; hexamer to trimers
[9] = target: the molecule itself; assay: NMR pulsed field gradient diffusion (13C-methyl-filtered); DegP^S210A,M280I, temperature series (fig. S1, K and L); hexamer to trimers

Binder: B1
binding result [1]: binds

Binder: B2
ratio of open to locked state of M280 at 37°C [2]: 1 | stoichiometry N [2]: 2

Binder: B3
Kd [3]: 7.8 ± 0.9 µM

Binder: B4
fold weakening of Kd against PDZ1 on biotinylated PDZ2 (biotinylated PDZ1 domain): ~10 fold

Binder: B5
stoichiometry N [4]: 3 and 6 | stoichiometry N [5]: 3

Binder: B6
stoichiometry N [6]: 3 and 6

Binder: B7
stoichiometry N [7]: 3 | stoichiometry N [8]: 6

Binder: B8
binding result [9]: binds
